Data on four variants can be found in IntAct's records for PubMed 19515790.

B1: Protein root UVB sensitive 1, chloroplastic (Arabidopsis thaliana (Mouse-ear cress)), Q7X6P3 (parent)
chain: MSCSYLLSGDASVVASRRWSDVSSRQRLFLPRQSLRQPSGSSFSRCVRLVANVNDHFSKQSLATRNCLASVFSADLGGSNGNNDNGNGGGGGGDGGGDNSDDSSFDLRYLCFLLLGLSCFFHFRLSAASAIAKDQNSDSNGDAVKETVWEVRGSKRKRLVPDFVKDEFVSEESAFELSSSLTPENLLAQCRNLLTQFLLPEGFPNSVTSDYLDYSLWRGVQGIASQISGVLATQSLLYAVGLGKGAIPTAAAINWVLKDGIGYLSKIMLSKYGRHFDVHPKGWRLFADLLENAAFGMEMLTPVFPQFFVMIGAAAGAGRSAAALIQAATRSCFNAGFASQRNFAEVIAKGEAQGMVSKSVGILLGIVVANCIGTSTSLALAAFGVVTTIHMYTNLKSYQCIQLRTLNPYRASLVFSEYLISGQAPLIKEVNDEEPLFPTVRFSNMKSPEKLQDFVLSSEAKAAAADIEERLQLGSKLSDVIHNKEEAIALFDLYRNEGYILTEHKGRFCVMLKESSTPQDMLRSLFQVNYLYWLEKNAGIEPASTYSDCKPGGRLHISLDYVRREFEHAKEDSESVGWVTEGLIARPLPTRIRLGHDRELLLSSPNSS
partner: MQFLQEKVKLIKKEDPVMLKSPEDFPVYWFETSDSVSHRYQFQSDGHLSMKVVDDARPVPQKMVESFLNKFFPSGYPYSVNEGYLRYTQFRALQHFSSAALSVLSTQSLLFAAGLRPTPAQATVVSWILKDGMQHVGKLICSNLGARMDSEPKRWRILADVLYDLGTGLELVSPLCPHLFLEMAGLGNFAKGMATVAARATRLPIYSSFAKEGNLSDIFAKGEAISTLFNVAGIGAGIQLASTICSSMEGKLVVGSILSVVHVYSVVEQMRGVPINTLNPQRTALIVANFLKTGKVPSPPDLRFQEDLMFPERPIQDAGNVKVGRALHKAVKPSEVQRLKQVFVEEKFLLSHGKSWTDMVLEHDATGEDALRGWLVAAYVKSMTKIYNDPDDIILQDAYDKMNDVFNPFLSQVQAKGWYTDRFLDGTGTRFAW

The assay covers variants of B1. Particulars: with rus2_arath RUS2, Q9SJX7.
As for N342G, the “effect of a mutation on the interaction” value is on record as “decreasing interaction”.

For the variant E298G, the “effect of a mutation on the interaction” value was “decreasing interaction”.

Consider K281G, for which the “effect of a mutation on the interaction” value is given as “disrupting interaction”.

Turning to K349G, the “effect of a mutation on the interaction” value was “disrupting interaction”.
